Test results: publication PMC2908255

Target: Erk2 (UniProt P63086)
Assay: ITC

Kd: 549 nM
dH: -10.8 kcal/mol
stoichiometry N: 0.95
Substance: HePTP 15-339 (includes the KIM) (domain or fragment)
